Patent publication US20210079056A1 (Bayer, published 2021)
Several values for one entry are separate records, joined by “and”; a condition that tells them apart may be missing. Equal entries are not always repeated.

Biological target: T1, human NPRA (human, UniProt P16066 33-1061)
T1 sequence (looked up): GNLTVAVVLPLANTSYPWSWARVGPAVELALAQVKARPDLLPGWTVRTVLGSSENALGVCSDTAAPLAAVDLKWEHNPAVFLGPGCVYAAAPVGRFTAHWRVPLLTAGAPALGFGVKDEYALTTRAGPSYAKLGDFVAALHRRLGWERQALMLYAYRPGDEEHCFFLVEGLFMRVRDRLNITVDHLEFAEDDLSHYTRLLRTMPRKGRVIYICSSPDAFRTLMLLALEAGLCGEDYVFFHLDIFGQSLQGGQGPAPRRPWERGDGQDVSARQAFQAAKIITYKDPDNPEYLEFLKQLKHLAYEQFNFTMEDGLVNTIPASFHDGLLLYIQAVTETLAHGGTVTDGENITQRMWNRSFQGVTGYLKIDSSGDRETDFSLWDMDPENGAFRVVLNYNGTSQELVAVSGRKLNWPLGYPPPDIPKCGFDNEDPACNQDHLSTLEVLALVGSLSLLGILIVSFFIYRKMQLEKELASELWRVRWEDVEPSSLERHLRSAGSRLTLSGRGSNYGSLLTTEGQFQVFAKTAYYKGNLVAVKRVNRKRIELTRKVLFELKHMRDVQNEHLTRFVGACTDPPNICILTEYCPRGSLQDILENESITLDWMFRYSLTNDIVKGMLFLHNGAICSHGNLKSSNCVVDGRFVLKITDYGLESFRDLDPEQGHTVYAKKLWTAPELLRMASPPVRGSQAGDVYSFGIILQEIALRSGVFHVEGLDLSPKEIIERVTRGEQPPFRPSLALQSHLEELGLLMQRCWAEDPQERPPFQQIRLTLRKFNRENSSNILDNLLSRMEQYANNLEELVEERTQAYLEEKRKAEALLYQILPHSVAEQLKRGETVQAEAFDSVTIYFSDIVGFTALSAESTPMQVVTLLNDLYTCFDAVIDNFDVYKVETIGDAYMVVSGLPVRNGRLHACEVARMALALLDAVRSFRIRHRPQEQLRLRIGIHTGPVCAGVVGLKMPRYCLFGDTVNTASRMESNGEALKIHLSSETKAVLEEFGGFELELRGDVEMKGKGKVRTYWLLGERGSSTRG
Test: cell-based or functional assay

B1: TPP-10355 (antibody, human IgG1, lambda)
heavy: not shown
light: QSVLTQPPSVSGAPGQRVTISCTGSSSNIGAGYDVHWYQQLPGTAPKLLIYGNSNRPSGVPDRFSGSKSGTSASLAITGLQAEDEADYYCAAWNPNPNPNPNPNGGSGGSLRRSSCFGGRMDRIGAQSGLGCNSFRYGSNPNPNPNPNPNVFGSGTKVTVLGQPKAAPSVTLFPPSSEELQANKATLVCLISDFYPGAVTVAWKADSSPVKAGVETTTPSKQSNNKYAASSYLSLTPEQWKSHRSYSCQVTHEGSTVEKTVAPTECS
average rel logEC50: -0.2
rel. logEC50 pcs 2: -0.6
rel. logEC50 pcs 3: 0.2
rel. logEC50 pcs 4: -0.3

B2: TPP-13061 (antibody, human IgG1, lambda)
heavy: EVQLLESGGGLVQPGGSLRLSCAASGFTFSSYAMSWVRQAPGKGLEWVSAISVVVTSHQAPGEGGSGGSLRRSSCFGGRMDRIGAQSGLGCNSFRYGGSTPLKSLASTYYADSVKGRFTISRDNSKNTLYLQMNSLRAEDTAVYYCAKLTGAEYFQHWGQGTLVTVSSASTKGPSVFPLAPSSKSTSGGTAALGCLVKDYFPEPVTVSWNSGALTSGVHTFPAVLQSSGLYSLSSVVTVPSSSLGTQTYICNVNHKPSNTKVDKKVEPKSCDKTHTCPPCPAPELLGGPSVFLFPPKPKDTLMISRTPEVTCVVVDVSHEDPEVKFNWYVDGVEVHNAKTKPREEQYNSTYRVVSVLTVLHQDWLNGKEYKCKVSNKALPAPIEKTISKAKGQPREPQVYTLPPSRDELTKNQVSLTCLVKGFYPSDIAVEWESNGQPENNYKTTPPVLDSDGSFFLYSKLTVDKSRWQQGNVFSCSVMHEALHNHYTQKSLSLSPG
light: QSVLTQPPSVSGAPGQRVTISCTGSSSNIGAGYDVHWYQQLPGTAPKLLIYGNSNRPSGVPDRFSGSKSGTSASLAITGLQAEDEADYYCQSYDSSLSGVVFGGGTKLTVLGQPKAAPSVTLFPPSSEELQANKATLVCLISDFYPGAVTVAWKADSSPVKAGVETTTPSKQSNNKYAASSYLSLTPEQWKSHRSYSCQVTHEGSTVEKTVAPTECS
average rel logEC50: -0.7
rel. logEC50* pcs: -0.6 and -0.8

B3: TPP-10847 (antibody, human IgG1, lambda)
heavy: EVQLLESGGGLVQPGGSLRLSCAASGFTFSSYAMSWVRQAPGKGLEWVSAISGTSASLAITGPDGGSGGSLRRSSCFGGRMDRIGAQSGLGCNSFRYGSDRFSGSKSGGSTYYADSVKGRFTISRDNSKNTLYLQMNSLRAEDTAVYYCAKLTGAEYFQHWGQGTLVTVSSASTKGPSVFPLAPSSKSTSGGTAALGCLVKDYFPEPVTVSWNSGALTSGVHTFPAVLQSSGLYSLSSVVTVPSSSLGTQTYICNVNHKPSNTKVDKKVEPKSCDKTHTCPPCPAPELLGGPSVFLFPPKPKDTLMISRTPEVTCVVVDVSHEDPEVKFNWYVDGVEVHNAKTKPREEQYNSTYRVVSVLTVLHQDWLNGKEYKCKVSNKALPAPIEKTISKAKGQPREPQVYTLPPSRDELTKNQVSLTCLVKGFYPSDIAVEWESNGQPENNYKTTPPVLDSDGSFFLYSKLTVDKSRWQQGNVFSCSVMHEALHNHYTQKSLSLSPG
light: QSVLTQPPSVSGAPGQRVTISCTGSSSNIGAGYDVHWYQQLPGTAPKLLIYGNSNRPSGVPDRFSGSKSGTSASLAITGLQAEDEADYYCQSYDSSLSGVVFGGGTKLTVLGQPKAAPSVTLFPPSSEELQANKATLVCLISDFYPGAVTVAWKADSSPVKAGVETTTPSKQSNNKYAASSYLSLTPEQWKSHRSYSCQVTHEGSTVEKTVAPTECS
average rel logEC50: -0.5
rel. logEC50 pcs 5: 0
rel. logEC50 pcs 6: -0.9

B4: TPP-10274 (antibody)
heavy: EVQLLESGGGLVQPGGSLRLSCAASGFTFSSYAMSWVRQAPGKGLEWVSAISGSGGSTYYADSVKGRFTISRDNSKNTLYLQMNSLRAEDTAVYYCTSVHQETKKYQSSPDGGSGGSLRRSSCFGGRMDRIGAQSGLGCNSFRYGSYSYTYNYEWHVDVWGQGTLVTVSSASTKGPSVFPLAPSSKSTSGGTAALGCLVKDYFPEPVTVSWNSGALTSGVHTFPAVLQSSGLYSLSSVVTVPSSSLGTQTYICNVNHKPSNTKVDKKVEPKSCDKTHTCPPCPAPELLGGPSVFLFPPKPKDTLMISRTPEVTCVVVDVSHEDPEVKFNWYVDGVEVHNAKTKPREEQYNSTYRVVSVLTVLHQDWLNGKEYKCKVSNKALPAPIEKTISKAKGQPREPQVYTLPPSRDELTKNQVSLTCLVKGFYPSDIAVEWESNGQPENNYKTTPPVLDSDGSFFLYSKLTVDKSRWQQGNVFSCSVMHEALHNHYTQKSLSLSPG
light: QSVLTQPPSVSGAPGQRVTISCTGSSSNIGAGYDVHWYQQLPGTAPKLLIYGNSNRPSGVPDRFSGSKSGTSASLAITGLQAEDEADYYCQSYDSSLSGVVFGGGTKLTVLGQPKAAPSVTLFPPSSEELQANKATLVCLISDFYPGAVTVAWKADSSPVKAGVETTTPSKQSNNKYAASSYLSLTPEQWKSHRSYSCQVTHEGSTVEKTVAPTECS
average rel logEC50: -0.1
rel. logEC50 pcs 2: -0.3
rel. logEC50 pcs 3: -0.2
rel. logEC50 pcs 7: 0

B5: TPP-10845 (antibody, human IgG1, lambda)
heavy: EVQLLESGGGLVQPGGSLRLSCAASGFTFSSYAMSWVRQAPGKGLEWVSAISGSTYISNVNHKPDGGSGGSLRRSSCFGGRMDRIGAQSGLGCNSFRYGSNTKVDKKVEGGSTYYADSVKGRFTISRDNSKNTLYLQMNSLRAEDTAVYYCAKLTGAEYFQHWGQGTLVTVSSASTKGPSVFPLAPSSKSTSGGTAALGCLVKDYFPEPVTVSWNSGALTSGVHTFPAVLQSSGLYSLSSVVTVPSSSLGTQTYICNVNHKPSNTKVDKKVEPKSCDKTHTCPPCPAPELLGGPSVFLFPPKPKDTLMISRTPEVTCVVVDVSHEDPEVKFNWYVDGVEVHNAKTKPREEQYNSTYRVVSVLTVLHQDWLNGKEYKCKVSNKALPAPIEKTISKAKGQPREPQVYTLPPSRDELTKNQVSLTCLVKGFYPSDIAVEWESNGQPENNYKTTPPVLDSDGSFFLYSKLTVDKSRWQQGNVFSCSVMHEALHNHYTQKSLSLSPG
light: QSVLTQPPSVSGAPGQRVTISCTGSSSNIGAGYDVHWYQQLPGTAPKLLIYGNSNRPSGVPDRFSGSKSGTSASLAITGLQAEDEADYYCQSYDSSLSGVVFGGGTKLTVLGQPKAAPSVTLFPPSSEELQANKATLVCLISDFYPGAVTVAWKADSSPVKAGVETTTPSKQSNNKYAASSYLSLTPEQWKSHRSYSCQVTHEGSTVEKTVAPTECS
average rel logEC50: -0.6
rel. logEC50 pcs 5: -0.4
rel. logEC50 pcs 6: -0.8

B6: TPP-10765 (antibody, human IgG1, lambda)
heavy: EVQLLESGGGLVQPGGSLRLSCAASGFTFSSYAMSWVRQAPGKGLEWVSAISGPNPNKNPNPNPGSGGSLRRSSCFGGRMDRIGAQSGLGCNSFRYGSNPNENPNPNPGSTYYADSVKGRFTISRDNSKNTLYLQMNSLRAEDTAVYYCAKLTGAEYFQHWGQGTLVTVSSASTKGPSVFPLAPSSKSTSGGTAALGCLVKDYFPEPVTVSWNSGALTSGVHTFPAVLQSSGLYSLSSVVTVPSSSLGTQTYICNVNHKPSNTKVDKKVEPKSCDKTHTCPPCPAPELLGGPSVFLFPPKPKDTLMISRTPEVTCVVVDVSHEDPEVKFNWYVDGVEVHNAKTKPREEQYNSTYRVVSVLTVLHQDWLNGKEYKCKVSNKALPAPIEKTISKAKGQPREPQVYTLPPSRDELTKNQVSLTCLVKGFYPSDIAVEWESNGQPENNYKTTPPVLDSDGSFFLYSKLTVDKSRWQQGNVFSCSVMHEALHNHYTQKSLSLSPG
light: QSVLTQPPSVSGAPGQRVTISCTGSSSNIGAGYDVHWYQQLPGTAPKLLIYGNSNRPSGVPDRFSGSKSGTSASLAITGLQAEDEADYYCQSYDSSLSGVVFGGGTKLTVLGQPKAAPSVTLFPPSSEELQANKATLVCLISDFYPGAVTVAWKADSSPVKAGVETTTPSKQSNNKYAASSYLSLTPEQWKSHRSYSCQVTHEGSTVEKTVAPTECS
average rel logEC50: -0.4
rel. logEC50 pcs 5: -0.9
rel. logEC50 pcs 6: -0.4
rel. logEC50 pcs 7: 0.2

B7: TPP-10282 (antibody, human IgG1, lambda)
heavy: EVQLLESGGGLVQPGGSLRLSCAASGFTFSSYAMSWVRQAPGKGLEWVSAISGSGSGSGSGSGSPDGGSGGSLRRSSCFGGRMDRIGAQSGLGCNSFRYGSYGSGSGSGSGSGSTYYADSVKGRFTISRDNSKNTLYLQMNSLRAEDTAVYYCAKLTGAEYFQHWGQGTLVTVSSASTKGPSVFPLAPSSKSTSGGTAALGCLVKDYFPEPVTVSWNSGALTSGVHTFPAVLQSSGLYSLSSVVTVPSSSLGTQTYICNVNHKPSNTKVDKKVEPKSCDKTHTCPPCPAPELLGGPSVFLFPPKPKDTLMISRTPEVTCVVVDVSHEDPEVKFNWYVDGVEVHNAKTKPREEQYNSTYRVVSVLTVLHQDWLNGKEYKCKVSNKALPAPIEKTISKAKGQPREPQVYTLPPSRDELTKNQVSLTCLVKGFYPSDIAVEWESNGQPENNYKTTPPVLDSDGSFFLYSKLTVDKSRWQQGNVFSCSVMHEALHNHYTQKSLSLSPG
light: QSVLTQPPSVSGAPGQRVTISCTGSSSNIGAGYDVHWYQQLPGTAPKLLIYGNSNRPSGVPDRFSGSKSGTSASLAITGLQAEDEADYYCQSYDSSLSGVVFGGGTKLTVLGQPKAAPSVTLFPPSSEELQANKATLVCLISDFYPGAVTVAWKADSSPVKAGVETTTPSKQSNNKYAASSYLSLTPEQWKSHRSYSCQVTHEGSTVEKTVAPTECS
average rel logEC50: 0.1
rel. logEC50 pcs 1: 0.3
rel. logEC50 pcs 2: -0.2
rel. logEC50 pcs 4: 0.1
rel. logEC50 pcs 5: 0.2

B8: TPP-10283 (antibody, human IgG1, lambda)
heavy: not shown
light: QSVLTQPPSVSGAPGQRVTISCTGSSSNIGAGYDVHWYQQLPGTAPKLLIYGNSNRPSGVPDRFSGSKSGTSASLAITGLQAEDEADYYCQSYDSSLSGVVFGGGTKLTVLGQPKAAPSVTLFPPSSEELQANKATLVCLISDFYPGAVTVAWKADSSPVKAGVETTTPSKQSNNKYAASSYLSLTPEQWKSHRSYSCQVTHEGSTVEKTVAPTECS
rel. logEC50 pcs 5: -0.8

B9: TPP-10290 (antibody)
heavy: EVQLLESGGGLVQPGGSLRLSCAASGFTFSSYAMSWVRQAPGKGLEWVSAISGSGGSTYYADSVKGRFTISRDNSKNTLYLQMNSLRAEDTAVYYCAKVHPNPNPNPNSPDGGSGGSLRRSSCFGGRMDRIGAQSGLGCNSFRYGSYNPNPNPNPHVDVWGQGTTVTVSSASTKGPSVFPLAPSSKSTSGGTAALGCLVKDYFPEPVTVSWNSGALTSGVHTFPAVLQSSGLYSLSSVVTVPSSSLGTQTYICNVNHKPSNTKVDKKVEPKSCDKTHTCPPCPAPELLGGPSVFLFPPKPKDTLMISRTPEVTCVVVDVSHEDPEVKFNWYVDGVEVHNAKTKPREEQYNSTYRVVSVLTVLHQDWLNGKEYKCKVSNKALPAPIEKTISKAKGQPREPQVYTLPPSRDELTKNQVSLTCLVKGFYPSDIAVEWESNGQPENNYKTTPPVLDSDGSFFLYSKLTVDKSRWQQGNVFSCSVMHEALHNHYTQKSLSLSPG
light: QSVLTQPPSVSGAPGQRVTISCTGSSSNIGAGYDVHWYQQLPGTAPKLLIYGNSNRPSGVPDRFSGSKSGTSASLAITGLQAEDEADYYCQSYDSSLSGVVFGGGTKLTVLGQPKAAPSVTLFPPSSEELQANKATLVCLISDFYPGAVTVAWKADSSPVKAGVETTTPSKQSNNKYAASSYLSLTPEQWKSHRSYSCQVTHEGSTVEKTVAPTECS
average rel logEC50: -0.5
rel. logEC50 pcs 1: -0.8
rel. logEC50 pcs 2: -0.1

B10: TPP-10294 (antibody, human IgG1, lambda)
heavy: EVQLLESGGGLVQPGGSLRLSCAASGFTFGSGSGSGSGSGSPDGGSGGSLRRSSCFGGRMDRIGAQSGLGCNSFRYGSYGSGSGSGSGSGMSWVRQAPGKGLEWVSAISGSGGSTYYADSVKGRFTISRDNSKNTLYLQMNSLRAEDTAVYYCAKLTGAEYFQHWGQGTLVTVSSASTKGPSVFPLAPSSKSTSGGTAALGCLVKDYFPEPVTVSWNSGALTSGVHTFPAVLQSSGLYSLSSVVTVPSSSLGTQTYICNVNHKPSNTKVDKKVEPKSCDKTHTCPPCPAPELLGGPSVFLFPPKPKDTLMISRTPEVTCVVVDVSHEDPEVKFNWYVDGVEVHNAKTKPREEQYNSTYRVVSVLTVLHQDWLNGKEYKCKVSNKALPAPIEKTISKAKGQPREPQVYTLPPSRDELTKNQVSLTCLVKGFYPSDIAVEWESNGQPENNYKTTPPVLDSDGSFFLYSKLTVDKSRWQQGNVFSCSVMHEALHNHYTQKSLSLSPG
light: QSVLTQPPSVSGAPGQRVTISCTGSSSNIGAGYDVHWYQQLPGTAPKLLIYGNSNRPSGVPDRFSGSKSGTSASLAITGLQAEDEADYYCQSYDSSLSGVVFGGGTKLTVLGQPKAAPSVTLFPPSSEELQANKATLVCLISDFYPGAVTVAWKADSSPVKAGVETTTPSKQSNNKYAASSYLSLTPEQWKSHRSYSCQVTHEGSTVEKTVAPTECS
average rel logEC50: -0.3
rel. logEC50* pcs: -0.5 and -0.6 and -0.4
rel. logEC50 pcs 4: -0.2
rel. logEC50 pcs 7: 0

B11: TPP-13054 (antibody, human IgG1, lambda)
heavy: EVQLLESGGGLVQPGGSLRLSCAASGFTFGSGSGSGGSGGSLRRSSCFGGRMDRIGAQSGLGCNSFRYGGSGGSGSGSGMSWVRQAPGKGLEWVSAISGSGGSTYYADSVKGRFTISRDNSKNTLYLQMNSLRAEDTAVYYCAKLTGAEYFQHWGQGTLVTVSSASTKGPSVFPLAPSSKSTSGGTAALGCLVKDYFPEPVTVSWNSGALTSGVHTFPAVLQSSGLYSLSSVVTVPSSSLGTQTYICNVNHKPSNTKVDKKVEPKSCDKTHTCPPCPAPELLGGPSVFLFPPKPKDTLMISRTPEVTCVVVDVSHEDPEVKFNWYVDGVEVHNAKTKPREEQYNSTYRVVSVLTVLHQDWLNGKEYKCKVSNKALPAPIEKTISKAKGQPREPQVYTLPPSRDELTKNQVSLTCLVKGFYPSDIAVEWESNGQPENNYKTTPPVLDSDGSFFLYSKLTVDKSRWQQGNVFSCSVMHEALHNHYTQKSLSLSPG
light: QSVLTQPPSVSGAPGQRVTISCTGSSSNIGAGYDVHWYQQLPGTAPKLLIYGNSNRPSGVPDRFSGSKSGTSASLAITGLQAEDEADYYCQSYDSSLSGVVFGGGTKLTVLGQPKAAPSVTLFPPSSEELQANKATLVCLISDFYPGAVTVAWKADSSPVKAGVETTTPSKQSNNKYAASSYLSLTPEQWKSHRSYSCQVTHEGSTVEKTVAPTECS
average rel logEC50: -0.8
rel. logEC50* pcs: -0.7 and -0.8

B12: TPP-13230 (antibody)
heavy: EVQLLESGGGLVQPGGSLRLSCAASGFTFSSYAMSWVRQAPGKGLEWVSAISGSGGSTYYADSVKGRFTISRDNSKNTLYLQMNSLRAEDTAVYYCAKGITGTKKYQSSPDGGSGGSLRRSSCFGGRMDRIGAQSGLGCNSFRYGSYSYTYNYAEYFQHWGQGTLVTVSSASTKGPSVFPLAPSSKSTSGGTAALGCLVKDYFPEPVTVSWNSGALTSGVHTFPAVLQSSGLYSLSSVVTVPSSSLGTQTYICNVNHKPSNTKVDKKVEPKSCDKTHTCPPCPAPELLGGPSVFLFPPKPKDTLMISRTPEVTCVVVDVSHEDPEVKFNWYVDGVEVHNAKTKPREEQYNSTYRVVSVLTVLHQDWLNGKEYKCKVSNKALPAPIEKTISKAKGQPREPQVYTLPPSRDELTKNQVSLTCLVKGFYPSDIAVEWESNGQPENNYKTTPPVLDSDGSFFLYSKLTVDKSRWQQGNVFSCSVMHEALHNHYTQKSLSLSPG
light: QSVLTQPPSVSGAPGQRVTISCTGSSSNIGAGYDVHWYQQLPGTAPKLLIYGNSNRPSGVPDRFSGSKSGTSASLAITGLQAEDEADYYCQSYDSSLSGVVFGGGTKLTVLGQPKAAPSVTLFPPSSEELQANKATLVCLISDFYPGAVTVAWKADSSPVKAGVETTTPSKQSNNKYAASSYLSLTPEQWKSHRSYSCQVTHEGSTVEKTVAPTECS
rel. logEC50 pcs 9: -0.3

B13: TPP-10361 (antibody, human IgG1, lambda)
heavy: not shown
light: QSVLTQPPSVSGAPGQRVTISCTGSSSNIGAGYDVHWYQQLPGTAPKLLIYGSGSGSGSGSGSPDGGSGGSLRRSSCFGGRMDRIGAQSGLGCNSFRYGSYGSGGSGSGSGNRPSGVPDRFSGSKSGTSASLAITGLQAEDEADYYCQSYDSSLSGVVFGGGTKLTVLGQPKAAPSVTLFPPSSEELQANKATLVCLISDFYPGAVTVAWKADSSPVKAGVETTTPSKQSNNKYAASSYLSLTPEQWKSHRSYSCQVTHEGSTVEKTVAPTECS
rel. logEC50 pcs 5: -0.1
